The values below come from publication PMC10723116.

The target in this experiment is H3K9me3 chromatin arrays (12 x 200 bp x 601 oligonucleosomes with H3K9-trimethylated histone H3) (Xenopus | not stated) (UniProt P84233).

In the case of “HP1α-K42 (K42Q mutant of human HP1α) (from UniProt P45973 1-191) (natural protein)”, the degree of association of H3K9me3 chromatin arrays (40 nM) with 5 μM protein, chromatin association assay stood at 20%.
